Data published in patent US20240400659A1 (BIOATLA, published 2024).
Numbering of substitutions follows the chain as printed. Numbers in names are those of the source. Blank lines part the entries; values can stand above or below the binder they belong to.

How the values were obtained:
mouse ApoE [1] = molecular target: T1, mouse ApoE (mouse, UniProt P08226 19-311, limits assumed); assay: pH affinity ELISA, coated mouse ApoE
T1 construct: also called msApoE; ms ApoE
T1 sequence (looked up): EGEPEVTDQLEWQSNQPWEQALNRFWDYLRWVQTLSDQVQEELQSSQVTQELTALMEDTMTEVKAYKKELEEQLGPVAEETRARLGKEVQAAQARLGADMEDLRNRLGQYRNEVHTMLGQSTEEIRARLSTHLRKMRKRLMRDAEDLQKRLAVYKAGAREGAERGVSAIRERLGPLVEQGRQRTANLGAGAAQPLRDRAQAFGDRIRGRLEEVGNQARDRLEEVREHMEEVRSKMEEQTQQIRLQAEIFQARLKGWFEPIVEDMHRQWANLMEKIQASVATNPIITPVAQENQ

Apolipoprotein E3 [2] = molecular target: T2, Apolipoprotein E3 (human, UniProt P02649 19-317); assay: pH affinity ELISA, coated hApoE3
T2 construct: also called ApoE3; hApoE3

mouse ApoE [3] = molecular target: T1, mouse ApoE; assay: pH affinity ELISA, coated mouse ApoE, pH 7.4
Apolipoprotein E4 [4] = molecular target: T3, Apolipoprotein E4 (human, UniProt P02649 19-317); assay: pH affinity ELISA, coated hApoE4, pH 6.0
T3 construct: also called ApoE4; hApoE4

mouse ApoE [5] = molecular target: T1, mouse ApoE; assay: pH affinity ELISA, coated mouse ApoE, pH 6.0
Apolipoprotein E4 [6] = molecular target: T3, Apolipoprotein E4; assay: pH affinity ELISA, coated hApoE4, pH 7.4
Apolipoprotein E4 [7] = molecular target: T3, Apolipoprotein E4; assay: pH affinity ELISA, coated hApoE4
Apolipoprotein E3 [8] = molecular target: T2, Apolipoprotein E3; assay: pH affinity ELISA, coated hApoE3, pH 7.4
Apolipoprotein E3 [9] = molecular target: T2, Apolipoprotein E3; assay: pH affinity ELISA, coated hApoE3, pH 6.0

T2 sequence (P02649 19-317 limits assumed): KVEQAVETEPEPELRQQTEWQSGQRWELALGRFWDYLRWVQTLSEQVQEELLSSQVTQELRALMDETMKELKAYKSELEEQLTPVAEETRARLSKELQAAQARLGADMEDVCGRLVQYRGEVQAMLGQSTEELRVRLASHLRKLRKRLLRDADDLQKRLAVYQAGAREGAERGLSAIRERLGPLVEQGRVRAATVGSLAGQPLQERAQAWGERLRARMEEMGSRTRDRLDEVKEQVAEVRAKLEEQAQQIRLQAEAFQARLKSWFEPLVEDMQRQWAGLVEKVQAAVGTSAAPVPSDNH
T3 sequence (P02649 19-317 C130R limits assumed): as the sequence (P02649 19-317 limits assumed) above, with C112R counted along it

B1: Anti-ApoE wildtype antibody BAP191.01-WT (antibody, V domains shown)
VH: QIQLVQSGPELKKPGETVKISCKASGYTFTTAGMQWVQKMPGKGFKWIGWINTHSGEPKYAEDFKGRFAFSLETSASTAYLQISNLKNEDTATYFCARMGGYAMDYWGQGTSVTVSS
VL: DIKLTQSPSSMYASLGERVTITCKASEDINSYLSWFQQKPGKSPKTLIYRANRLVDGVPSRFSGSGSGQDYSLTISSLEYEDMGIYYCLQYDEFPLTFGAGTKLELT
notes: also called benchmark; parent
Ratio pH 7.4/6.0 (EC50) (mouse ApoE [1]): 0.96 ratio
Ratio pH 7.4/6.0 (EC50) (Apolipoprotein E3 [2]): 0.73 ratio
EC50 (mouse ApoE [3]): 0.089 µg/mL
EC50 (Apolipoprotein E4 [4]): 0.0797 µg/mL
EC50 (mouse ApoE [5]): 0.0926 µg/mL
EC50 (Apolipoprotein E4 [6]): 0.0368 µg/mL
Ratio pH 7.4/6.0 (EC50) (Apolipoprotein E4 [7]): 0.46 ratio
EC50 (Apolipoprotein E3 [8]): 0.0991 µg/mL
EC50 (Apolipoprotein E3 [9]): 0.136 µg/mL

B2: BAP191.01-CPE-HC-I051D (antibody, V domains shown)
VH: B1 VH with I51D
VL: B1 VL
notes: also called BAP191.01-CPE-HC-1051D
Ratio pH 7.4/6.0 (EC50) (mouse ApoE [1]): 3.76 ratio
EC50 (mouse ApoE [3]): 0.39 µg/mL
EC50 (Apolipoprotein E4 [4]): 1.54 µg/mL
EC50 (mouse ApoE [5]): 0.104 µg/mL
EC50 (Apolipoprotein E4 [6]): 4.75 µg/mL
Ratio pH 7.4/6.0 (EC50) (Apolipoprotein E4 [7]): 3.07 ratio

B7: BAP191-01-CPE-HC-M034D (antibody, V domains shown)
VH: B1 VH with M34D
VL: B1 VL
Ratio pH 7.4/6.0 (EC50) (mouse ApoE [1]): 3.71 ratio
EC50 (mouse ApoE [3]): 0.389 µg/mL
EC50 (Apolipoprotein E4 [4]): 0.685 µg/mL
EC50 (mouse ApoE [5]): 0.105 µg/mL
EC50 (Apolipoprotein E4 [6]): 2.06 µg/mL
Ratio pH 7.4/6.0 (EC50) (Apolipoprotein E4 [7]): 3.01 ratio

The next lines start with the values.

Ratio pH 7.4/6.0 (EC50) (mouse ApoE [1]): 1.67 ratio
Ratio pH 7.4/6.0 (EC50) (Apolipoprotein E3 [2]): 1.27 ratio
EC50 (mouse ApoE [3]): 0.244 µg/mL
EC50 (Apolipoprotein E4 [4]): 0.0893 µg/mL
EC50 (mouse ApoE [5]): 0.146 µg/mL
EC50 (Apolipoprotein E4 [6]): 0.147 µg/mL
Ratio pH 7.4/6.0 (EC50) (Apolipoprotein E4 [7]): 1.65 ratio
EC50 (Apolipoprotein E3 [8]): 0.311 µg/mL
EC50 (Apolipoprotein E3 [9]): 0.245 µg/mL
B3: BAP191.01-CPE-LC-P095D (antibody, V domains shown)
VH: B1 VH
VL: B1 VL with P95D

Ratio pH 7.4/6.0 (EC50) (mouse ApoE [1]): 2.53 ratio
EC50 (mouse ApoE [3]): 0.413 µg/mL
EC50 (Apolipoprotein E4 [4]): 4.36 µg/mL
EC50 (mouse ApoE [5]): 0.163 µg/mL
EC50 (Apolipoprotein E4 [6]): 18.9 µg/mL
Ratio pH 7.4/6.0 (EC50) (Apolipoprotein E4 [7]): 4.33 ratio
B4: BAP191.01-CPE-HC-R098E (antibody, V domains shown)
VH: B1 VH with R98E
VL: B1 VL

Ratio pH 7.4/6.0 (EC50) (mouse ApoE [1]): 2.25 ratio
Ratio pH 7.4/6.0 (EC50) (Apolipoprotein E3 [2]): 2.95 ratio
EC50 (mouse ApoE [3]): 2.45 µg/mL
EC50 (Apolipoprotein E4 [4]): 4.2 µg/mL
EC50 (mouse ApoE [5]): 1.09 µg/mL
EC50 (Apolipoprotein E4 [6]): 68700 µg/mL
Ratio pH 7.4/6.0 (EC50) (Apolipoprotein E4 [7]): 18400 ratio
EC50 (Apolipoprotein E3 [8]): 9.25 µg/mL
EC50 (Apolipoprotein E3 [9]): 3.13 µg/mL
B5: BAP191.01-CPE-HC-M104E (antibody, V domains shown)
VH: B1 VH with M104E
VL: B1 VL

EC50 (Apolipoprotein E4 [4]): 0.084 µg/mL
EC50 (Apolipoprotein E4 [6]): 0.15 µg/mL
Ratio pH 7.4/6.0 (EC50) (Apolipoprotein E4 [7]): 1.79 ratio
B6: BAP191.01-CPE-LC-Y091D (antibody, V domains shown)
VH: B1 VH
VL: B1 VL with Y91D

Ratio pH 7.4/6.0 (EC50) (mouse ApoE [1]): 2.75 ratio
EC50 (mouse ApoE [3]): 1.58 µg/mL
EC50 (Apolipoprotein E4 [4]): 2.93 µg/mL
EC50 (mouse ApoE [5]): 0.573 µg/mL
EC50 (Apolipoprotein E4 [6]): 6890 µg/mL
Ratio pH 7.4/6.0 (EC50) (Apolipoprotein E4 [7]): 2350 ratio
B8: BAP191.01-CPE-HC-M099E (antibody, V domains shown)
VH: B1 VH with M99E
VL: B1 VL
